Laboratory results: the RNAGym collection of RNA variant scans (doi:10.7554/elife.90254)

B1: LINE1-mini (parent)
chain: GGCAGAGCUCAACACAGCGUGGCAAAGUGGCUGUGGCUAGACUGCC

Variants of: B1
Test: self-cleavage, relative activity (ratio to wild type); higher = more cleavage; in vitro, sequencing; the parent is a self-cleaving ribozyme

Row | Variant | self-cleavage
1 | G1A C46U | 2.95
2 | G1A C46G | 2.92
3 | G1A C46A | 2.61
4 | G1A C45A | 0.82
5 | G1A C45G | 0.34
6 | G1A C45U | 1.19
7 | G1A U28C | 0.39
8 | G1A U28A | 0.26
9 | G1A U28G | 0.6
10 | G1A U43C | 0.11
11 | G1A U43G | 0.02
12 | G1A U43A | 0.05
13 | G1A G30C | 1.51
14 | G1A G30A | 0.85
15 | G1A G30U | 1.59
16 | G1A C3G | 0.56
17 | G1A C3U | 0.47
18 | G1C A4G | 0.07
19 | G1C A4U | 0.06
20 | G1C A4C | 0.12
21 | G1A A11C | 0.04
22 | G1A A11U | 0.17
23 | G1A A11G | 0.06
24 | G1C A14U | 0.02

Row | Variant | self-cleavage
25 | G1C A14C | 0.02
26 | G1C A14G | 0.08
27 | G1A G7A | 0.51
28 | G1A G7U | 0.3
29 | G1A G7C | 0.6
30 | G1A C31A | 0.12
31 | G1A C31U | 0.32
32 | G1A C31G | 0.11
33 | G1C A26G | 0.09
34 | G1C A26C | 0.08
35 | G1C A26U | 0.12
36 | G1A G36C | 0.11
37 | G1A G36U | 0.1
38 | G1A G36A | 0.18
39 | G1A A6C | 0.81
40 | G1A A6G | 0.09
41 | G1A A6U | 1.55
42 | G1A G35A | 0.2
43 | G1A G35U | 0.17
44 | G1A G35C | 0.1
45 | G1A A14G | 0.39
46 | G1A A14C | 0.1
47 | G1A A14U | 0.27
48 | G1A G2C | 0.24

Row | Variant | self-cleavage
49 | G1A G2A | 1.83
50 | G1A G2U | 0.47
51 | G1A U38G | 0.03
52 | G1A U38A | 1.36
53 | G1A U38C | 0.84
54 | G1A A4G | 0.31
55 | G1A A4C | 0.08
56 | G1A A4U | 0.27
57 | G1A C18G | 0.38
58 | G1A C18A | 1.81
59 | G1A C18U | 0.94
60 | G1A C10U | 0.35
61 | G1A C10G | 0.18
62 | G1A C10A | 0.12
63 | G1A C23G | 0.53
64 | G1A C23U | 1.29
65 | G1A C23A | 0.95
66 | G1C A41G | 0.02
67 | G1C A41C | 0.02
68 | G1A U34G | 0.29
69 | G1A U34A | 0.08
70 | G1A U34C | 0.14
71 | G1A G33C | 0.05
72 | G1A G33A | 0.09

Row | Variant | self-cleavage
73 | G1A G33U | 0.09
74 | G1A A24C | 0.56
75 | G1A A24G | 2.89
76 | G1A A24U | 1.15
77 | G1A U20C | 0.33
78 | G1A U20A | 1.27
79 | G1A U20G | 0.58
80 | G1C A11U | 0.03
81 | G1C A11G | 0.01
82 | G1C A11C | 0.01
83 | G1C A6U | 0.14
84 | G1C A6G | 0.02
85 | G1C A6C | 0.04
86 | G1C A12C | 0.02
87 | G1C A12U | 0.06
88 | G1C A12G | 0.02
89 | G1A A25C | 1.36
90 | G1A A25U | 1.09
91 | G1A A25G | 0.39
92 | G1A C8G | 0.41
93 | G1A C8A | 0.88
94 | G1A C8U | 0.78
95 | G1A A39G | 0.12
96 | G1A A39C | 0.14

Row | Variant | self-cleavage
97 | G1A A39U | 1.46
98 | G1A G21C | 2.09
99 | G1A G21A | 1.86
100 | G1A G21U | 1.38
101 | G1A G17U | 0.13
102 | G1A G17A | 0.15
103 | G1A G17C | 0.18
104 | G1C | 0.13
105 | G1A | 1.11
106 | G1A G40A | 0.11
107 | G1A G40C | 0.07
108 | G1A G40U | 0.1
109 | G1A C15A | 0.06
110 | G1A C15G | 0.08
111 | G1A C15U | 1.02
112 | G1A G29U | 1.1
113 | G1A G29A | 0.63
114 | G1A G29C | 0.28
115 | G1A G22C | 1.94
116 | G1A G22A | 0.94
117 | G1A A16G | 0.25
118 | G1A A16C | 0.11
119 | G1A A16U | 0.1
120 | G1A A41G | 0.26

Row | Variant | self-cleavage
121 | G1A A41C | 0.09
122 | G1A A41U | 0.97
123 | G1A U32C | 0.11
124 | G1A U32A | 0.09
125 | G1A U32G | 0.09
126 | G1A U9G | 0.22
127 | G1A U9A | 0.34
128 | G1A U9C | 0.1
129 | G1C A39G | 0.01
130 | G1C A39U | 0.06
131 | G1C A39C | 0.04
132 | G1C A24U | 0.2
133 | G1C A24C | 0.07
134 | G1C A24G | 0.29
135 | G1A G27A | 1.81
136 | G1A G27U | 1.95
137 | G1A G27C | 0.86
138 | G1A G5U | 0.08
139 | G1A G5A | 0.2
140 | G1A G5C | 0.08
141 | G1A A26G | 1.58
142 | G1A A26U | 0.53
143 | G1A A26C | 0.78
144 | G1C A25C | 0.1

Row | Variant | self-cleavage
145 | G1C A25U | 0.08
146 | G1C A25G | 0.01
147 | G1A C13G | 0.1
148 | G1A C13A | 0.13
149 | G1A C13U | 0.2
150 | G1A G19C | 1.28
151 | G1A G19U | 0.94
152 | G1A G19A | 1.77
153 | G1C A16C | 0.01
154 | G1C A16U | 0.02
155 | G1C A16G | 0.12
156 | G1A C42A | 0.06
157 | G1A C42U | 0.16
158 | G1A C42G | 0.06
159 | G1A A12G | 0.04
160 | G1A A12C | 0.04
161 | G1A A12U | 0.19
162 | G1A C37A | 0.07
163 | G1A C37U | 0.08
164 | G1A C37G | 0.04
165 | G1A G44A | 0.28
166 | G1A G44U | 0.91
167 | G1A G44C | 0.47
